Reference: US5969210, “Methods for the characterization of compounds which stimulate STF-1 expression in pancreatic islet cells” (Research Development Foundation)

Target: BETA-2/E47 heterodimer (reticulocyte lysate) (UniProt Q60430;P15923-2 Q60430:1-355,P15923-2:1-651)
Assay: EMSA; BETA-2 and E-47 cDNAs
Settings: label: 32P

Sequence of BETA-2/E47 heterodimer (reticulocyte lysate) (Q60430 whole entry, chain 1 of 2): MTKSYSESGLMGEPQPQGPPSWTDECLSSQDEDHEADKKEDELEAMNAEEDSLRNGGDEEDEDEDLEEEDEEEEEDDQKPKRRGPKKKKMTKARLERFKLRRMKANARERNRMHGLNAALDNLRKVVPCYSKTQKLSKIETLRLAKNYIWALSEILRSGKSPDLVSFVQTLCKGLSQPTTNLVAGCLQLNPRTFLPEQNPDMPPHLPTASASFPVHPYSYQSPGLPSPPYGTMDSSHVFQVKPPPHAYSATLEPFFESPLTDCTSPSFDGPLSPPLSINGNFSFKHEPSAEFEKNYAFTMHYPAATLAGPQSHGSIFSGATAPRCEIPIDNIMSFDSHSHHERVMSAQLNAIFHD
Sequence of BETA-2/E47 heterodimer (reticulocyte lysate) (P15923 other isoform, or with tags, fused parts or gaps, chain 2 of 2): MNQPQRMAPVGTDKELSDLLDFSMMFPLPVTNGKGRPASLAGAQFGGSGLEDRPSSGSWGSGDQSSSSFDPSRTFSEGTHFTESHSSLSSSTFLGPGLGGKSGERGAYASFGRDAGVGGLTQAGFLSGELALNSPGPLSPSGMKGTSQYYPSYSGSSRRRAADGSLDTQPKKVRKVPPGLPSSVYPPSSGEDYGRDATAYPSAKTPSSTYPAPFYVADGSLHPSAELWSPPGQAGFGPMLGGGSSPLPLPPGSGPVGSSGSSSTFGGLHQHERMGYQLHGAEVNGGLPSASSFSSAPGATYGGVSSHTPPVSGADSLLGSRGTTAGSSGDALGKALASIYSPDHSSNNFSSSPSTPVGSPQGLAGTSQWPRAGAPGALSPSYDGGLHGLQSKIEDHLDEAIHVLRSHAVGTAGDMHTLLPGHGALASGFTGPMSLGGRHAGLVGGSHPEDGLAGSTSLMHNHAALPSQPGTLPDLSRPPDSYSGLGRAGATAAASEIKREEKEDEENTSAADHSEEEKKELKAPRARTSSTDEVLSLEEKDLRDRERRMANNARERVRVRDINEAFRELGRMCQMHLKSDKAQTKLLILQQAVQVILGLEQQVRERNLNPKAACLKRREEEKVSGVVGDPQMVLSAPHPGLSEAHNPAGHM

B1: B element WT (dsDNA)
DNA 1: TCAGTGACAGATGGAGTCCT
DNA 2: AGGACTCCATCTGTCACTGA
- binding result: binds
